Target: cLUC-SlPIF4 (tomato (Solanum lycopersicum))
Experiment: split reporter (BiFC, NanoBiT); split luciferase complementation: cLUC-SlPIF4 and nLUC-SlDELLA co-expressed in N. benthamiana leaves for 2 days; 1 mM D-luciferin; camera and microplate luminometer

Sequence of cLUC-SlPIF4 (tomato (Solanum lycopersicum)) (main, as listed by the source): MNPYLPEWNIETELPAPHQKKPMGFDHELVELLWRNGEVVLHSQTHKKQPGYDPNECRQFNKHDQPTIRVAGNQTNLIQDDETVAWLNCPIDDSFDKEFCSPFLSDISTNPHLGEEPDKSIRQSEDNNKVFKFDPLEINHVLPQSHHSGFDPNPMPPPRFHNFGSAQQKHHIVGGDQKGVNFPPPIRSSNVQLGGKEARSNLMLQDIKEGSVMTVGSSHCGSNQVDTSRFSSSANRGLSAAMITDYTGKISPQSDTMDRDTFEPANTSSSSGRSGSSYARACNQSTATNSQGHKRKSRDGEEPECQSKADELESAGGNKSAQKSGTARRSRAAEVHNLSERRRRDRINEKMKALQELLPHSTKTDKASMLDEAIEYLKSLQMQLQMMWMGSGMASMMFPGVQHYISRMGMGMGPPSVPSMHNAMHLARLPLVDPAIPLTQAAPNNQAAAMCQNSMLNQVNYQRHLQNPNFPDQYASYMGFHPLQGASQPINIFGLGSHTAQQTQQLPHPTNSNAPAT

nLUC-SlDELLA (natural protein)
luciferase activity, fold over the control co-expressing cLUC and nLUC (times the control): 170

Reference: publication PMC11384114
